Experimental data taken from US20040014207A1.

Molecular target: murine B7-DC (murine) (UniProt Q9WUL5)
Assay: flow cytometry competition; murine bone marrow derived dendritic cells preincubated with PD-1.Ig, then stained with sHIgM12

Sequence of murine B7-DC (murine) (Q9WUL5 20-247): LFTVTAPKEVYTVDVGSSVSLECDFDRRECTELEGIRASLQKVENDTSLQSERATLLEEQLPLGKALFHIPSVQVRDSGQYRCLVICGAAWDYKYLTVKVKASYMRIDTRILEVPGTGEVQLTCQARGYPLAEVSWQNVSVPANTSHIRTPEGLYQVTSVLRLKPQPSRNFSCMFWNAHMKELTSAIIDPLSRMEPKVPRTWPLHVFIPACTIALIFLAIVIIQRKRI
Sequence of PD-1.Ig fusion protein (Fc fusion) (Q02242 25-169): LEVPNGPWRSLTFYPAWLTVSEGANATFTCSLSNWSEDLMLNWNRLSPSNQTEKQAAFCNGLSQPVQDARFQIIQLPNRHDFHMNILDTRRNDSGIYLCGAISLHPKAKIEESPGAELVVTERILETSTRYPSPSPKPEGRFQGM

- sHIgM12 staining remaining, percent of the level in the absence of PD-1: 50%
Substance: PD-1.Ig fusion protein (Fc fusion)
